Results published in article PMC6042154 (Proceedings of the National Academy of Sciences of the …, 2018).

Target: the molecule itself
Assay: native MS

B1: outer membrane porin F (OmpF) (natural protein)
chain: AEIYNKDGNKVDLYGKAVGLHYFSKGNGENSYGGNGDMTYARLGFKGETQINSDLTGYGQWEYNFQGNNSEGADAQTGNKTRLAFAGLKYADVGSFDYGRNYGVVYDALGYTDMLPEFGGDTAYSDDFFVGRVGGVATYRNSNFFGLVDGLNFAVQYLGKNERDTARRSNGDGVGGSISYEYEGFGIVGAYGAADRTNLQEAQPLGNGKKAEQWATGLKYDANNIYLAANYGETRNATPITNKFTNTSGFANKTQDVLLVAQYQFDFGLRPSIAYTKSKAKDVEGIGDVDLVNYFEVGATYYFNKNMSTYVDYIINQIDSDNKLGVGSDDTVAVGIVYQF
  stoichiometry N: 3
